Measured values: a protein production outcome set (Wang et al. 2014)

Assay: label from the status in PepcDB records
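Note: failed if final PepcDB status was selected cloned or expressed and not failed if soluble or beyond.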

Sequence | protein production
MSCYNKALLIGNKVVVILVFLLCLVHSSESLRPLFACDPANGLTRTLRFCRANVPIHVRVQDLLGRLTLQEKIRNLVNNAAAVPRLGIGGYEWWSEALHGISDVGPGAKFGGAFPGATSFPQVITTAASFNQSLWEEIGRVVSDEARAMYNGGVAGLTYWSPNVNILRDPRWGRGQETPGEDPIVAAKYAASYVRGLQGTAAGNRLKVAACCKHYTAYDLDNWNGVDRFHFNAKVTQQDLEDTYNVPFKSCVYEGKVASVMCSYNQVNGKPTCADENLLKNTIRGQWRLNGYIVSDCDSVDVFFNQQHYTSTPEEAAARSIKAGLDLDCGPFLAIFTEGAVKKGLLTENDINLALANTLTVQMRLGMFDGNLGPYANLGPRDVCTPAHKHLALEAAHQGIVLLKNSARSLPLSPRRHRTVAVIGPNSDVTETMIGNYAGKACAYTSPLQGISRYARTLHQAGCAGVACKGNQGFGAAEAAAREADATVLVMGLDQSIEAETRDRTGLLLPGYQQDLVTRVAQASRGPVILVLMSGGPIDVTFAKNDPRVAAIIWAGYPGQAGGAAIANIIFGAANPGGKLPMTWYPQDYVAKVPMTVMAMRASGNYPGRTYRFYKGPVVFPFGFGLSYTTFTHSLAKSPLAQLSVSLSNLNSANTILNSSSHSIKVSHTNCNSFPKMPLHVEVSNTGEFDGTHTVFVFAEPPINGIKGLGVNKQLIAFEKVHVMAGAKQTVQVDVDACKHLGVVDEYGKRRIPMGEHKLHIGDLKHTILVQPQL | failed
MSLTASDDLPGVLIVEDGRLAAATLRIQLESLGYDVLGVFDNGEEAVRCAPDLRPDIALVDIMLCGALDGVETAARLAAGCNLPIIFITSSQDVETFQRAKRVNPFGYLAKPVAADTLHRSIEMAIHKKKLEEGHHHHHH | not failed
MTAFYLLVPFLFIRFIFLSLLDRKATGRAAHFASMQGKEIIAYYLYQLSTLMLLIVPFFLKVSLHFSSFFYLGLGAYLLGSVLLFLVIKDFANPDEKGLNTKGLYALSRHPMYIAYFVLFLGVAMLTQSLTLLIFLAIFQLSAHFIILAEERECLIKFGAAYQEYQKRVRMYL | failed
PRRWPILLIFPGSGFIQMTEREAEPIALAFSAQGYQTMVVEYNLLDRGPVYPNAIDVGLTALKYAKNQGPPHYGDANKTILMGFSAGSHVAALTNAMGNNTEYLKTHGFGDSPLTSRLQVLGYPVIDLAAGFPKSREEAFKISPDEQYWASQNLVTDQTPPTFLWNTCADAVVPTMNSLLYAEALARHHVEYDIHTFTHGKHGLCLSTVETSRYNYPEDIEPRAANWVPLVLSWLSEMLD | failed
VGFAPELYCGLENCYDVLEVNREEFDKQKLAKAYRALARKHHPDRVKNKEEKLLAEERFRVIATAYETLKDDEAKTNYDYYLDHPDQRFYNYYQYYRLRAAPKVDL | not failed
MLVESFNPFNNLLLSSIVAAIPIILFLLCLTVFKMKGVYAAITTLIVTIIVAMAFFKLPGSIAGGATLEGFYQGIIPIGFIVIMAVWLYKIATKSGQFAIVQDSIASVSRDQRVQLLLIGFVFNGFLEGAAGFGVPIAICAVLLTQLGFKPLQAAMYCLVSNAAAGAYGAVGIPIAIVDTLNLPGGVTTSQVALIGNLTLGFISFVVPFLLMYIMDGFKGVKETFPATLVVAVTFTVLQVLIAAFAGPELADIIPGLVAMIALALFSKKWQPKNIFRINKDEKADAVPKHSIGHITYAWSPFIILTIVVMIWSLPAFKGLFEKGGALSALVVNFNVPGTMNAVTNKPNELTFNFFAQTGTAILITAIITIIIAKNMSFKTAGHLLGLTVKELWISVLTICFILAVSKITTYGGLSNAMGQGISKTGAAFPLLSPLLGWIGVFMTGSVVNNNSLFAPIQASVAEQIGTKGSLLVAANVAGGVTAKIVSPQSIAIATAAVNKVGKESELMKMAMRFSIGLLILVCIWTFICSLFIS | failed
MIQAFLEKLPHLDVYGNPQYFFYLILAVLPIYIGLFFKKRFALYEIIFSLSFIVMMLTGSTFNQLKSLLAYVVGQSLLVFIYKAYRKRFNHTLVFYVTVCLSIFPLFLVKLIPAISEDGHQSLFGFLGISYLTFRAVAMIIEMRDGVLKEFTLWEFLRFLLFFPTFSSGPIDRFKRFNEDYINIPDRNELLDMLGQAIHYLMLGFLYKFILAYIFGSLIMPPLKELALEQGGVFNWPTLGVMYAFGFDLFFDFAGYTMFALAISNLMGIKSPINFDKPFKSRDLKEFWNRWHMSLSFWFRDFVFMRLVKLLVKNKVFKNRNVTSSVAYIINMLLMGFWHGLTWYYIAYGLFHGIGLVINDAWVRKKKNINKERRLAKKPLLPENKWTYALGVFITFNVVMFSFLIFSGFLDLLWFPQPHNK | failed
MNLPFAPQSFAALLVMVMTLAHGSVSAQESFRVELGRDGETLGDMRPVFLKFESRPLPAISPLEVARRYQKLFESSDEPEVRIDALNRLNNIRNRSGEDVGFSEEREAAIYEEVLESYESILAKGSFSGRLDELLYQMAKAHALTGQPEQSIARLKQLVGLYPNSELVPEARFRIAEAAFSAGRYAEAEAGYRQLLEHDSHQELAAKARYMLGWSQFKQGNPAWARASASFTAVLDQQLPDHSALANPPAHSMDMLEDTFRVLALMASRQSDARTLADWLDGRESSAWQHLLYDRLADLHAVERRYERAVLVNNAFVSEFPGHTASPDFLAQSVSYWQLAGNTSKALAARDDYIQRLGAEARFQTMTPEQKGLWAQYSRFLADHYYATGTDLSSRNQTAAASEAWAKAAHYYERLAPRSEQAGELLHLAGDARLLAGDRTEAVRNFRAAAYDHRHGDSRDSAWAAIRIVREDLELASGENRTATLLVLSNEEQRYAEAFGPDQRLSGLRADLANRWYDLGEFERALHYASSTLTWERAGVTERYAAWLVTARIRQKNNEFGLAERAWRQALPLADEASQDAESQRRSLLEQLASAIYQQGEKAARAGDATLAVAHFQRVEGVMPGSEIAIKARYDAANTLLRASDWLAAINELQRFRIDYPSHELTPETSEKLVLAYQESGQGLKAAEELLNRSETLADPWPTRLRAAAIFHAEGDSASRNQLYKNWLAVAPTPDSADEHVQHQTMRQRLIESGDSVIAVREQLLARERASQWHSDGTLKWAADAALFFGAQTAERFAGIALVHPLEQALARKQAAMQQAQEYLQEAESFAGDGVRSEVLYRRAELYRTLASDLMSSEVPAELNEMEAMQYQMLLEEEAFPLEEEAMALHARNHERIPTEGFDEWIQRSLEALATMHPGRYDRQLRWMSWTTDTNQGGS | failed
MRSLWVFYRTAPDTIVFFDDSPTARFSTVVAFYNHRTGGPMSFAQRDPIGELSLLTHIFIKYREPYVTDGQCRVIVQSKRPIMSSIEQYSQKPFYAHKGTDESSQDTETTEDIVVKEGKHFWIEFDPPEEPFTDTSRRVLRLVRNVEQHRQPGYCTFSKSLFVERNGNDIFKPYRLYPTHNFEDKYFSSAEVKESASLYDLSSLKKNEIRPTLERYEEALKAEVLTPLRNALIPCMVEVYRREIGFESEPDKSLRNASYSSVLSWGSTLRFTLRLWDRIVSGQPLAQVKSEDWFEGTFEKVPSAVSQGARSAIRYYVSDKKLSRDYVLAQALPVYFKWAACREAIQSKLHEQKTDFFAVDTELDKTHVLSGDNVPAKIKKLLEEAAARRKDALSENTIQAYQHAIDHFKSFCERHGPKALPASPETLIAYFEHLAQNGYAESTIRKRRSAIRFLHERSMNESPTTSESVRRYFDDLRKTIPESRGHGQKDPILFHHLHQMSFDEEELSDLRDRAILYIGVATGLRDSGLIGLEMRDIFEKEGGVVYRIRDPKGEGDPGPERVSVPHEVPALTPSPNEALTAWIEAAGIESGAVFRSVDQYGNVGGDDGLSSGSISKDIVKPWMKSIGEDPSEYSCHSLRAGFVTQAILDGITEPRIAAQSRHKSIEALREYERPTNDMKNHMLKEMG | failed
MIDLNEALAKDRWIGRLASHLDGFEALLDGQGYAKTTVQQKIKLLAGFSAWVERQDVPLSLLGEEDADLFLTELGLRPRRGDAWTIRQLVRYLRDTGGVPVLLPEVDTSAKGKLIDAFGEFLRKERGLSASTLTNYLPIIRGFLDEQFGGKDPGFDHLRVGDVHRFIVRRAQAGSLGRAKLAVTALRSFLRFLQQRGLLATDLAVAVPGIAGWRLAHLPKALRAEQVERLLASCDRRTPAGRRDYAVLMLLARLGLRGGEVSALTLDDLDWDCGEIVVHGKGQRLARLPLPADVGAALVDYLRQDRPACSTRRVFIRTRAPRRGFVSQSTICCIVRRALKRAGLTPAFKGAHLLRHSLATDLLRRGASLVEIGQLLRHSQPNTTQIYAKVDIAALRAIALPWPGVAS | failed
MLPLEPYLTQTSAVPQMSHFMCHSPTHKPQGLLPWAPFHQASVSLYPISPWPSESVCPPTCPGGASCWFPAGNAWDRVELGFLGFGAGGVSIAVPGFPLSCGQGCCAGGWLGHGARFPAKLRAFPQVIRRGWLTINNISLMKGGSKEYWFVLTAESLSWYKDEEEKEKKYMLPLDNLKIRDVEKGFMSNKHVFAIFNTEQRNVYKDLRQIELACDSQEDVDSWKASFLRAGVYPEKDQAENEDGAQENTFSMDPQLERQVETIRNLVDSYVAIINKSIRDLMPKTIMHLMINNTKAFIHHELLAYLYSSADQSSLMEESADQAQRRDDMLRMYHALKEALNIIGDISTSTVSTPVPPPVDDTWLQSASSHSPTPQRRPVSSIHPPGRPPAVRGPTPGPPLIPVPVGAAASFSAPPIPSRPGPQSVFANSDLFPAPPQIPSRPVRIPPGIPPGVPRRPPAAPSRPTIIRPAEPSLLD | not failed
MSLKIAAFGEVMLRFTPPEYLMLEQTEQLRMNFVGTGVNLLANLAHFQLETALITKLPANRLGEAGKAALRKLGISDQWVGEKGDHIGSFFAEMGYGIRPTQVTYQNRHQSAFGISEAKDYDFEAFLAEVDMVHICGISLSLTEKTRDAALILAQKAHAYQKKVCFDFNYRPSLNTANSALFMRQQYERILPYCDIVFGSRRDLVELLGFIPREDLEGEAQETELIQRFMSQYNLEWFAGTTRSHSQNQNYLSGYLYTQNEYQQSEKRPLLNLDRIGAGDAYAAGILYGYSQNWSLEKAVTFATVNGVLAHTIQGDIPLTTVKQVNHVLEHPNIDLIREGHHHHHH | not failed
MCGVELDSLISQVKDLLPDLGEGFILACLEYYHYDPEQVINNILEERLAPTLSQLDRNLDREMN | not failed
MKKAGILLLSLLMPFSTAFAEASKPLSVELLWQLKRIGSPVVSSTGEHIIAPVTEYDLKEDKGSTQLWRFDVEGKNNRAITAKGLKVSEPVFSPDGKTLAFISERNDDDAGQIYLLPMDGPGEAAKLTDIPTGVNGIKWVGKHLYFISNIFPEQNWEQMKAQLKTDKDNKVSARQWNALPYSQFDHWLDERRQAHVFRIPATGGTVEAVTQPLGHELPRSSQSSESYDISPDERLIAFSAYGSDNRVDPKLDLFLATIGGNKAENITPENPAPDLNPSFSPNGKTLAFTRQKIPGFYADTARLMLLDVSSRKLTTLTPDWDRSVSEFEWTPDSKGFYASIEDAATNRIYHIDAKSGKAKAITQATDFSQPAIAKDGQLIATNQSFLYPARLVSINPRNGKTERLEQFNDDILKDVDLGTYESVTYKGYQGQDIQMWVHYPPGFDRSKKYPLFMLIHGGPHNAISDGFHYRWNAQTFASWGYVTAWPNFHGSSGFGQDFADAINPDWKNKSLEDVLKATDWFKQQSWIDSDRMVAGGASYGGYLTSIILGQPHPFKALLIHAAVYDMYAQMSADFAVHSTRFGNYWDNPELYKAISPHYFAANFNTPTLVSHGQLDYRVPVGQGFELFRTLQTRNVESRMIYFPDENHWIVKPNNSIYWYNQVKDWMAHYAKPGAQ | failed
MSTPAPEQMLSAWQVGIAALLILVNGALSIGLGLGLERRLAWAAVRTVVQLLLIGFVLQWVFASAHWAVVLAVIALMTLIAGHATGSRGARDYAGLRLDGTLSVFGSTWLIGAIGLVAVLQARPWYTPQYAIPIMGMILGNTLTGVGLALERMTGELIATRDQVETLLALGGTRWEAARNAARAAVRAGMTPIINQMSVVGVVSLPGMMTGQVLAGQSPLEAVRYQIVIMFLLAASSGLGTVAAVLLAYRRLFSREHQLLSARIVQRAPGVH | failed
